Assay results reported in publication PMC2909130 (Biochemistry, 2010).
Where a chain is given by its changes, count along the chain named. In names and notes the source's numbering stands.

B1: ArsD109/C12A/C13A/C39S (domain or fragment, Escherichia coli (plasmid R773), UniProt P46003 1-109, looked up)
chain: MKTLMVFDPAMAASTGVCGTDVDQALVDFSTDVQWLKQSGVQIERFNLAQQPMSFVQNEKVKAFIEASGAEGLPLLLLDGETVMAGRYPKRAELARWFGIPLDKVGLAP
B2: ArsD109 (ArsD arsenic metallochaperone of plasmid R773, residues 1-109, wild type) (domain or fragment, Escherichia coli (plasmid R773), UniProt P46003 1-109, looked up)
chain: B1 chain with A12C, A13C, S39C

Target: the molecule itself
Test: crystal structure

Row | Protein | binding result
1 | B1 | binds
2 | B2 | binds
